Reference: publication PMC10218236, “Structural Optimization and Interaction Study of a DNA Aptamer to L1 Cell Adhesion Molecule”

Molecular target: L1CAM protein (Sino Biological) (UniProt P32004 20-1120)
Assay: DMS footprinting; 100 nM DNA, 300 nM L1CAM; PBS, 4.5 g/L glucose, 5 mM MgCl2, 1 mg/mL BSA, 0.1 mg/mL herring sperm DNA; 30 min at 4 °C (or 25/37 °C); pH not stated
Settings: protein: commercial; label: FAM (3' FAM in DMS footprinting); hairpin, two stems, two loops, T bulge in stem I

L1CAM protein (Sino Biological), sequence (P32004 20-1120): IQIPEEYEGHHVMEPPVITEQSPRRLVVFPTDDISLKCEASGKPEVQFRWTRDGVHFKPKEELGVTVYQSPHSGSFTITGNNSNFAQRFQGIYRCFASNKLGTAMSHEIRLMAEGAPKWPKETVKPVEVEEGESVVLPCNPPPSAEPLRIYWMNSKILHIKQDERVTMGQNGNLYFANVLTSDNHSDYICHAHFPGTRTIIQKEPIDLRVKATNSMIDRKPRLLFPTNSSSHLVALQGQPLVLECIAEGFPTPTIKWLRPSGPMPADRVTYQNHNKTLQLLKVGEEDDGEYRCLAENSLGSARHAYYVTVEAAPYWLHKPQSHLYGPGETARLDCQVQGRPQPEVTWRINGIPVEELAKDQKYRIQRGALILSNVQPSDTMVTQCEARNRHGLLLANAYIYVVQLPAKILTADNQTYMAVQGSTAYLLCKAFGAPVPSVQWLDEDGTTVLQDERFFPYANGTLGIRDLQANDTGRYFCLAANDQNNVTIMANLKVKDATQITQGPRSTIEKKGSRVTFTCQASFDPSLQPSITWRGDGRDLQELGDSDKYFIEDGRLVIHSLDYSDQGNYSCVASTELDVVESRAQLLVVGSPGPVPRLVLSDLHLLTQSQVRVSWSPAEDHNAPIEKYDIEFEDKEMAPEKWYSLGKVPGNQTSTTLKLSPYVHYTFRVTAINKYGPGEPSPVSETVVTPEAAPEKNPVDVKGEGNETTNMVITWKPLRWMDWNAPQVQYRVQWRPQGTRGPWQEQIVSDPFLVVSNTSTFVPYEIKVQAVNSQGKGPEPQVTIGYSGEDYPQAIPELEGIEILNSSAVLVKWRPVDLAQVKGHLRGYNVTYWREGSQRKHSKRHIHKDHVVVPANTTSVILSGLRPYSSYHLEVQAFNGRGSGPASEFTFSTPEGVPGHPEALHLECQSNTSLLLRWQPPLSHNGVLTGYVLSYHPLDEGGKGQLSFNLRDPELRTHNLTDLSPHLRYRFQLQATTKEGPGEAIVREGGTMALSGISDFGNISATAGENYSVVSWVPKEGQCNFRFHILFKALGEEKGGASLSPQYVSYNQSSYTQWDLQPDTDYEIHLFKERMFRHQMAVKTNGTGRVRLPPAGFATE

B1: yly20 (ssDNA)
DNA: CAGATAGGGGGTAGCTCGGTCGTGTTTTTGGGTTGTTTGGTGGGTCTTCTG
B1: binds.
